PMC7586906, “Development and characterization of specific anti‐Usutu virus chicken‐derived single chain variable fragment antibodies” (Protein Science : A Publication of the Protein Society, 2020)
Changes are numbered by the printed parent chain. Values joined by “and” are separate entries in the source; they are usually repeats but may differ in a detail not shown here. Equal entries are not always repeated.

How the values were obtained:
[1] = molecular target: T1, USUV strain Vienna-2001 whole virus (E protein on virions) (Usutu virus Vienna-2001, UniProt Q5WPU5, strain); assay: ELISA; virus ELISA: PEG-precipitated USUV Vienna-2001 (8.1 × 10^6 pfu in 50 μl) coated on the plate, blocked with 5% BSA, scFv 2.5-20 μg/ml for 1 hr at 37°C, detected by HRP anti-His, 450 nm; conditions: one partner purified
T1 construct: envelope (E) protein of Usutu virus strain Vienna-2001, cut from the polyprotein, as it stands on whole virions coated on the plate; The assay used whole virus; The other proteins of the virion are not written; also called USUV Vienna-2001; source: virus expanded in C6/36 cells, precipitated with 8% PEG8000, resuspended in NTE buffer

[2] = molecular target: T2, soluble E (sE) protein of USUV strain Bologna-2009 (Usutu virus strain Bologna-2009, UniProt R4HE74, strain); assay: far-Western, overlay or dot blot; western blot at one amount: 0.5 μg of E protein DIII and 0.5 or 0.25 μg of sE per well on a 15% SDS gel, probed with 5 μg of scFv in 10 ml PBST, then mouse anti-HA and HRP goat anti-mouse; conditions: both partners purified
T2 construct: also called sE of USUV; USUV sE; source: Drosophila S2 cells, provided by Prof; Karin Stiasny and Lena Roßbacher

[3] = molecular target: T3, USUV E protein DIII group B (Usutu virus, sequence group B, strain); assay: SPR; Biacore T200; scFv captured by its His-tag on a CM5 chip (His Capture Kit), E protein DIII as analyte in two-fold dilutions (31-2,000 nM; WNV also 100-32,000 nM), multi-cycle kinetics, 25°C, PBS with 0.05% Tween 20, 30 μl/min; 1:1 kinetic fit (legend of Figure 4), steady-state affinity model named for KD in the methods; conditions: both partners purified
T3 construct: 103 amino acids, 11.0 kDa; also called USUV B; USUV DIII group B
T3 chain: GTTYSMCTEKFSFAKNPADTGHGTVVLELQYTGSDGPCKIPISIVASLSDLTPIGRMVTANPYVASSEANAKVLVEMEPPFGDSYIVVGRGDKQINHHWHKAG

[4] = molecular target: T4, USUV E protein DIII group I (Usutu virus, sequence group I, strain); assay: as above; conditions: both partners purified
T4 construct: 103 amino acids, 10.9 kDa; also called USUV I; USUV DIII group I
T4 chain: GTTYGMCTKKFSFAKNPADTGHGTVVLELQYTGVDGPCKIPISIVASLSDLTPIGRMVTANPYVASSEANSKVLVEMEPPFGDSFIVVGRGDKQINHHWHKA

WNV E protein DIII = molecular target: T5, WNV E protein DIII (West Nile virus NY99 (also called 2741), strain); assay: as above; conditions: both partners purified
T5 construct: domain III of the envelope (E) protein of West Nile virus; 103 amino acids, 10.9 kDa; also called WNV DIII; WNV E protein DIII NY99 strain
T5 chain: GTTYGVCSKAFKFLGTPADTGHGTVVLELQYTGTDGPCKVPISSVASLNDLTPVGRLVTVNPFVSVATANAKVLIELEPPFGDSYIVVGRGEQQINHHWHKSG

[5] = molecular target: T6, soluble E (sE) protein of WNV strain NY-1999 (West Nile virus NY-1999 (NY99), UniProt Q9Q6P4, strain); assay: far-Western, overlay or dot blot; western blot at one amount: 0.5 μg of E protein DIII and 0.5 or 0.25 μg of sE per well on a 15% SDS gel, probed with 5 μg of scFv in 10 ml PBST, then mouse anti-HA and HRP goat anti-mouse; conditions: both partners purified
T6 construct: whole ectodomain of the envelope (E) protein of West Nile virus strain NY-1999 (NY99); also called sE of WNV; WNV NY99 sE; source: Drosophila S2 cells, provided by Prof; Karin Stiasny and Lena Roßbacher

B1: scFv G1 (scFv, V domains shown)
VH: AVTLDESGGGLQTPGGGLSLVCKASGFDFSRYGMNWVRQAPGKGLEWVAGISPDGSGTWYATAVKGRATISRDNGQSTVRLQLNNLRAEDTATYYCTRGNGDSFDAWGHGTEVIVSS
VL: ALTQPSSVSANLGGTVKITCSGGSYSYGWYQQKSPGSAPVTVIYYNDKRPSDIPSRFSGSKSGSTGTLTITGVQADDEAVYFCGGFDSSAGYVGIFGAGTTLTVL
notes: chicken light chain variable region (V lambda) of G1, N-terminal part of the scFv; long linker between V lambda and VH; From a chicken immune phage display library in pComb3XSS; Could not be held stably on the SPR chip; source: E. coli TOP10, purified (IMAC, HisTrap FF); not shown: His6, C-terminal, kept; HA, C-terminal, kept
B1: binds [1]; binds [2].

B2: scFv D2.2 (scFv, V domains shown)
VH: AVTLDESGGGLQTPGGALSLVCKGSGFTFSSHAMMWVRQAPGKGLEWVAGISRDGSTYYGAAVKGRATISRDDGQSTVRLQLNNLRAEDTGTYFCAKDVYGYCDTISGCEAGTIDAWGHGTEVIVSS
VL: B1 VL with G14E, G23S, Y25G, G85S, F86E, A90S, G91T, V93A
notes: chicken light chain variable region (V lambda) of D2.2, N-terminal part of the scFv; long linker between V lambda and VH; chicken heavy chain variable region (VH) of D2.2; From a chicken immune phage display library in pComb3XSS; source: E. coli TOP10, purified (IMAC, HisTrap FF); not shown: His6, C-terminal, kept; HA, C-terminal, kept
B2 was tested, and the binding result [1] was “binds”, the Kd [3] was 0.23 µM and 0.25 µM and the koff [3] was 0.074 s⁻¹ and 0.069 s⁻¹. For the same binder, the kon [3] was 326000 M⁻¹ s⁻¹ and 273000 M⁻¹ s⁻¹.

B3: scFv A8 (scFv, V domains shown)
VH: AVTLDESGGGLQTPGGGLSLVCKASGFTMSSYHMGWVRQAPGKGLEYVVGIDNTGRYTDYGAAVKGRATISRDNGQSTLRLQLNNLRAEDTGTYFCAKSAYLGRGCWDAELCAGEIDAWGHGTEVIVSS
VL: ALTQPSSVSANLGGTVKITCSGGYSGYGWYQQKSPGSAPVTLIYDNTKRPSDIPSRFSGSKSGSTGTLTITGVQAEDEAVYYCGSGDSRNYVGIFGAGTTLTVR
notes: chicken light chain variable region (V lambda) of A8, N-terminal part of the scFv; long linker between V lambda and VH; chicken heavy chain variable region (VH) of A8; From a chicken immune phage display library in pComb3XSS; source: E. coli TOP10, purified (IMAC, HisTrap FF); not shown: His6, C-terminal, kept; HA, C-terminal, kept
B3 was tested, and the binding result [1] was “binds”, the Kd [3] was 0.1 µM and the koff [3] was 0.002 s⁻¹. It also gave a kon [3] of 20000 M⁻¹ s⁻¹, a Kd [4] of 0.06 µM and a koff [4] of 0.001 s⁻¹. The kon [4] was 19800 M⁻¹ s⁻¹.

B4: scFv A12 (scFv, V domains shown)
VH: B3 VH with G17A, M29F, V49A, D108G, A118T
VL: ALTQPSSVSANPGETVQITCSGSSNKYGNNYGWYQQKSPGSAPVTVIYDDDKRPSDIPPRFSGSKSGSTNTLTITGVQADDEAVYFCGAYDNSDSGIFGAGTALTVL
notes: chicken light chain variable region (V lambda) of A12, N-terminal part of the scFv; long linker between V lambda and VH; chicken heavy chain variable region (VH) of A12; From a chicken immune phage display library in pComb3XSS; source: E. coli TOP10, purified (IMAC, HisTrap FF); not shown: His6, C-terminal, kept; HA, C-terminal, kept
B4 was tested, and the binding result [1] was “binds”, the Kd [3] was 0.3 µM and 0.29 µM and the koff [3] was 0.012 s⁻¹ and 0.01 s⁻¹. For the same binder, the kon [3] was 39600 M⁻¹ s⁻¹ and 34200 M⁻¹ s⁻¹, the Kd [4] was 0.14 µM and 0.13 µM and the koff [4] was 0.007 s⁻¹ and 0.006 s⁻¹. For the same binder, the kon [4] was 48600 M⁻¹ s⁻¹ and 46600 M⁻¹ s⁻¹.

B5: scFv A9 (scFv, V domains shown)
VH: AVTLDESGGGLQTPGGTLSLVCKASGFTFSSVNMFWVRQAPGKGLEYVASISNTGSSTNYGAAVKGRATISRDNGQSTVRLQLNNLRAEDTATYFCAKDAYGYSFTVTPGYTIDAWGHGTEVIVSS
VL: ALTQPSSVSANLGGTVKITCSGGGGSYGWYQQKSPGSAPVTVIYENTKRPSNIPSRFSGSKSGSTSTLTITGVQAEDEAVYYCGSTDNNNIFGAGTTLTVL
notes: chicken light chain variable region (V lambda) of A9, N-terminal part of the scFv; long linker between V lambda and VH; chicken heavy chain variable region (VH) of A9; From a chicken immune phage display library in pComb3XSS; also called cross-reactive scFv; source: E. coli TOP10, purified (IMAC, HisTrap FF); not shown: His6, C-terminal, kept; HA, C-terminal, kept
B5 was tested, and the binding result [1] was “binds”, the Kd [3] was 0.41 µM and 0.36 µM and the koff [3] was 0.062 s⁻¹ and 0.059 s⁻¹. For the same binder, the kon [3] was 152000 M⁻¹ s⁻¹ and 166000 M⁻¹ s⁻¹, the Kd [4] was 0.29 µM and 0.3 µM and the koff [4] was 0.05 s⁻¹ and 0.048 s⁻¹. For the same binder, the kon [4] was 170000 M⁻¹ s⁻¹ and 168000 M⁻¹ s⁻¹, the Kd (WNV E protein DIII) was 0.1 µM and the koff (WNV E protein DIII) was 0.105 s⁻¹ and 0.094 s⁻¹. The kon (WNV E protein DIII) was 1.04e+06 M⁻¹ s⁻¹ and 970000 M⁻¹ s⁻¹, the binding result [2] was “binds” and the binding result [5] was “binds”.
